B1: ADP302 (protein)
chain: MAAWKSWTALRLCATVVVLDMVVCKGFVEDLDESFKENRNDDIWLVDFYAPWCGHCKKLEPIWNEVGLEMKSIGSPVKVGKMDATSYSSIASEFGVRGYPTIKLLKGDLAYNYRGPRTKDDIIEFAHRVSGALIRPLPSQQMFEHMQKRHRVFFVYVGGESPLKEKYIDAASELIVYTYFFSASEEVVPEYVTLKEMPAVLVFKDETYFVYDEYEDGDLSSWINRERFQNYLAMDGFLLYELGDTGKLVALAVIDEKNTSVEHTRLKSIIQEVARDYRDLFHRDFQFGHMDGNDYINTLLMDELTVPTVVVLNTSNQQYFLLDRQIKNVEDMVQFINNILDGTVEAQGGDSILQRLKRIVFDAKSTIVSIFKSSP
modifications: bait human Fc-tagged dimer
B2: ADP147 (protein)
chain: MAACGRVRRMFRLSAALHLLLLFAAGAEKLPGQGVHSQGQGPGANFVSFVGQAGGGGPAGQQLPQLPQSSQLQQQQQQQQQQQQPQPPQPPFPAGGPPARRGGAGAGGGWKLAEEESCREDVTRVCPKHTWSNNLAVLECLQDVREPENEISSDCNHLLWNYKLNLTTDPKFESVAREVCKSTITEIKECADEPVGKGYMVSCLVDHRGNITEYQCHQYITKMTAIIFSDYRLICGFMDDCKNDINILKCGSIRLGEKDAHSQGEVVSCLEKGLVKEAEEREPKIQVSELCKKAILRVAELSSDDFHLDRHLYFACRDDRERFCENTQAGEGRVYKCLFNHKFEESMSEKCREALTTRQKLIAQDYKVSYSLAKSCKSDLKKYRCNVENLPRSREARLSYLLMCLESAVHRGRQVSSECQGEMLDYRRMLMEDFSLSPEIILSCRGEIEHHCSGLHRKGRTLHCLMKVVRGEKGNLGMNCQQALQTLIQETDPGADYRIDRALNEACESVIQTACKHIRSGDPMILSCLMEHLYTEKMVEDCEHRLLELQYFISRDWKLDPVLYRKCQGDASRLCHTHGWNETSEFMPQGAVFSCLYRHAYRTEEQGRRLSRECRAEVQRILHQRAMDVKLDPALQDKCLIDLGKWCSEKTETGQELECLQDHLDDLVVECRDIVGNLTELESEDIQIEALLMRACEPIIQNFCHDVADNQIDSGDLMECLIQNKHQKDMNEKCAIGVTHFQLVQMKDFRFSYKFKMACKEDVLKLCPNIKKKVDVVICLSTTVRNDTLQEAKEHRVSLKCRRQLRVEELEMTEDIRLEPDLYEACKSDIKNFCSAVQYGNAQIIECLKENKKQLSTRCHQKVFKLQETEMMDPELDYTLMRVCKQMIKRFCPEADSKTMLQCLKQNKNSELMDPKCKQMITKRQITQNTDYRLNPMLRKACKADIPKFCHGILTKAKDDSELEGQVISCLKLRYADQRLSSDCEDQIRIIIQESALDYRLDPQLQLHCSDEISSLCAEEAAAQEQTGQVEECLKVNLLKIKTELCKKEVLNMLKESKADIFVDPVLHTACALDIKHHCAAITPGRGRQMSCLMEALEDKRVRLQPECKKRLNDRIEMWSYAAKVAPADGFSDLAMQVMTSPS
modifications: bait human Fc-tagged dimer
B3: ADP333 (protein)
chain: MASVVLPSGSQCAAAAAAAAPPGLRLRLLLLLFSAAALIPTGDGQNLFTKDVTVIEGEVATISCQVNKSDDSVIQLLNPNRQTIYFRDFRPLKDSRFQLLNFSSSELKVSLTNVSISDEGRYFCQLYTDPPQESYTTITVLVPPRNLMIDIQKDTAVEGEEIEVNCTAMASKPATTIRWFKGNTELKGKSEVEEWSDMYTVTSQLMLKVHKEDDGVPVICQVEHPAVTGNLQTQRYLEVQYKPQVHIQMTYPLQGLTREGDALELTCEAIGKPQPVMVTWVRVDDEMPQHAVLSGPNLFINNLNKTDNGTYRCEASNIVGKAHSDYMLYVYDPPTTIPPPTT
modifications: bait human Fc-tagged dimer
B4: ADP327 (peptide)
chain: MASLGHILVFCVGLLTMAKAESPKEHDPFTYDYQS
modifications: also: human Fc-tagged dimer
B5: ADP104 (protein)
chain: MEPPDAPAQARGAPRLLLLAVLLAAHPDAQAEVRLSVPPLVEVMRGKSVILDCTPTGTHDHYMLEWFLTDRSGARPRLASAEMQGSELQVTMHDTRGRSPPYQLDSQGRLVLAEAQVGDERDYVCVVRAGAAGTAEATARLNVFAKPEATEVSPNKGTLSVMEDSAQEIATCNSRNGNPAPKITWYRNGQRLEVPVEMNPEGYMTSRTVREASGLLSLTSTLYLRLRKDDRDASFHCAAHYSLPEGRHGRLDSPTFHLTLHYPTEHVQFWVGSPSTPAGWVREGDTVQLLCRGDGSPSPEYTLFRLQDEQEEVLNVNLEGNLTLEGVTRGQSGTYGCRVEDYDAADDVQLSKTLELRVAYLDPLELSEGKVLSLPLNSSAVVNCSVHGLPTPALRWTKDSTPLGDGPMLSLSSITFDSNGTYVCEASLPTVPVLSRTQNFTLLVQGSPELKTAEIEPKADGSWREGDEVTLICSARGHPDPKLSWSQLGGSPAEPIPGRQGWVSSSLTLKVTSALSRDGISCEASNPHGNKRHVFHFGTVSPQTSQAG
modifications: bait human Fc-tagged dimer
B6: ADP273 (protein)
chain: RGSCQACGDSVLVVSEDVNYEPDLDFHQGRLYWSDLQAMFLQFLGEGRLEDTIRQTSLRERVAGSAGMAALTQDIRAALSRQKLDHVWTDTHYVGLQFPDPAHPNTLHWVDEAGKVGEQLPLEDPDVYCPYSAIGNVTGELVYAHYGRPEDLQDLRARGVDPVGRLLLVRVGVISFAQKVTNAQDFGAQGVLIYPEPADFSQDPPKPSLSSQQAVYGHVHLGTGDPYTPGFPSFNQTQFPPVASSGLPSIPAQPISADIASRLLRKLKGPVAPQEWQGSLLGSPYHLGPGPRLRLVVNNHRTSTPINNIFGCIEGRSEPDHYVVIGAQRDAWGPGAAKSAVGTAILLELVRTFSSMVSNGFRPRRSLLFISWDGGDFGSVGSTEWLEGYLSVLHLKAVVYVSLDNAVLGDDKFHAKTSPLLTSLIESVLKQVDSPNHSGQTLYEQVVFTNPSWDAEVIRPLPMDSSAYSFTAFVGVPAVEFSFMEDDQAYPFLHTKEDTYENLHKVLQGRLPAVAQAVAQLAGQLLIRLSHDRLLPLDFGRYGDVVLRHIGNLNEFSGDLKARGLTLQWVYSARGDYIRAAEKLRQEIYSSEERDERLTRMYNVRIMRVEFYFLSQYVSPADSPFRHIFMGRGDHTLGALLDHLRLLRSNSSGTPGATSSTGFQESRFRRQLALLTWTLQGAANALSGDVWNIDNNF
modifications: bait human Fc-tagged dimer
B7: ADP133 (protein)
chain: MAPLRPLLILALLAWVALADQESCKGRCTEGFNVDKKCQCDELCSYYQSCCTDYTAECKPQVTRGDVFTMPEDEYTVYDDGEEKNNATVHEQVGGPSLTSDLQAQSKGNPEQTPVLKPEEEAPAPEVGASKPEGIDSRPETLHPGRPQPPAEEELCSGKPFDAFTDLKNGSLFAFRGQYCYELDEKAVRPGYPKLIRDVWGIEGPIDAAFTRINCQGKTYLFKGSQYWRFEDGVLDPDYPRNISDGFDGIPDNVDAALALPAHSYSGRERVYFFKGKQYWEYQFQHQPSQEECEGSSLSAVFEHFAMMQRDSWEDIFELLFWGRTSAGTRQPQFISRDWHGVPGQVDAAMAGRIYISGMAPRPSLAKKQRFRHRNRKGYRSQRGHSRGRNQNSRRPSRATWLSLFSSEESNLGANNYDDYRMDWLVPATCEPIQSVFFFSGDKYYRVNLRTRRVDTVDPPYPRSIAQYWLGCPAPGHL
modifications: bait human Fc-tagged dimer

Data on 7 molecules can be found in paper PMC11098746 (2024).

No end group written: not given here.

The target in this assay is Circumsporozoite protein (CSP) (Plasmodium falciparum (isolate 3D7), UniProt Q7K740). Nature of the assay: AVEXIS screen signal:noise (double-corrected).
Circumsporozoite protein (CSP), sequence (Q7K740 19-374): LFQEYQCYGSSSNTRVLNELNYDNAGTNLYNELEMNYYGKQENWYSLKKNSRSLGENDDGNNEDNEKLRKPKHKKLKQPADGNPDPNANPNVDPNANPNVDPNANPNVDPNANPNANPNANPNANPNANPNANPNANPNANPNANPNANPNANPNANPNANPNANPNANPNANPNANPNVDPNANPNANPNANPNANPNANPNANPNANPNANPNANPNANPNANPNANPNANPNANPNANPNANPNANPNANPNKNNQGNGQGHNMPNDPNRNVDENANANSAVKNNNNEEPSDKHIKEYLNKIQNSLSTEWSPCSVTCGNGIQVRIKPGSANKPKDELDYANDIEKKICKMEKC
The molecule B1 had a binding score of 1.19.

Regarding B2, the binding score worked out at 0.989.

As to B3, the binding score was 1.11.

The molecule B4 displayed a binding score of 1.89.

With B5, the binding score turned out to be 1.08.

On to B6, for which the binding score worked out at 0.72.

In turn, B7 gave a binding score of 1.13.
